# Tested on: RAJI cells
# Assay: JNG assay, co-culture with RAJI cells
# Format: cell-based
# Conditions: JNG cells expressing construct, co-culture with Raji
# Procedure: Cellular supernatant is collected and assayed for the induction of cytokines (e.g., IL2).
# JNG (Jurkat cells expressing EGFP under an NFAT promoter) were infected with lentiviral vectors encoding different single chain and multi-chain SARs by spinfection in the presence of 8 µg/ml of Polybrene® (Sigma, Catalog no. H9268). The Jurkat-NFAT-GFP cells are engineered in such a way that the IL-2 promoter, which carries NFAT binding sites, is cloned upstream of the GFP gene. These cells have been used to study signaling via TCR and CAR. The different SARs were stably expressed in Jurkat NFAT-GFP cells by lentiviral mediated gene transfer, followed by selection with puromycin or blasticidin. No drug selection was used in case the construct lacked an antibiotic resistance gene. The SAR-expressing Jurkat-NFAT-GFP cells were cocultured with the target cells at E:T ratio of approximately 1:2 for approximately 4 hours to 18 hours. When the interaction between SIRs and their target antigen results in activation of the NFAT pathway, GFP expression is induced. […] GFP expression was monitored by FACS analysis. The Jurkat-NFAT-GFP (parental) cells were used as control. The structure of different constructs can be determined based on their names. […] The sequence of the other constructs in the table can be similarly determined from their names and by referring to the different Tables of this disclosure that provide the names and SEQ ID NO of the different modules. Alternatively, the composition and modular architecture of the different SAR constructs can be determined from their sequences by bioinformatics tools, including using nucleic acid and amino acids homology searches. A SAR is considered positive in the assay in case the SAR expressing Jurkat-NFAT-GFP cells show greater % GFP positive cells when cultured with the target cell line as compared to parental Jurkat-NFAT-GFP cells. […] In general, the number +/-, +, 2+, 3+, 4+, 5+ refer to approximately 5%, 10%, 20%, 30%, 40% and 50% GFP positive cells. The % of GFP induction in the above assay is dependent not only the relative strength of the SAR but also, among other factors, on the relative level of expression of the SAR in the JNG cells and the relative level of expression of the target antigen in the target cell line. To control for the difference in gene transduction efficiency of the different SAR constructs, the experiment was conducted with JNG cells transduced with SAR constructs co-expressing a drug resistance gene (e.g., puromycin or PAC) followed by drug selection to generate a stable population of SAR-expressing cells. It is to be noted that the drug resistance gene (e.g., PAC) in the SAR constructs is optional and in vivo studies were conducted with SAR constructs lacking the PAC gene.
row,Molecule,NFAT-GFP ASSAY: Raji
1,22006 (protein) MALPVTALLLPLALLLHAARPLEGKPIPNPLLGLDSTGSGEDLKNVFPPEVAVFEPSKAEIAHTQKATLVCLATGFYPDHVELSWWVNGKEVHSGVCTDPQPLKEQPALNDSRYCLSSRLRVSATFWQNPRNHFRCQVQFYGLSENDEWTQDRAKPVTQIVSAEAWGRADCGITSASYHQGVLSATILYEILLGKATLYAVLVSALVLMAMVKRKDSRGRAKRSGSGATNFSLLKQAGDVEENPGPTSTMALPVTALLLPLALLLHAARPEVQLVESGGGLVQPGGSLRLSCTFSGGTFSSYTMGWFRQAPGKEREFVAEVRWGGVTTYSNSLKDRFSISEDSVKNAVYLQMNSLKPEDTAVYYCAAVRQMYMTVVPDYWGQGTLVTVSSTREQKLISEEDGSGIQNPDPAVYQLRDSKSSDKSVCLFTDFDSQTNVSQSKDSDVYITDKCVLDMRSMDFKSNSAVAWSNKSDFACANAFNNSIIPEDTFFPSSDVPCDVKLVEKSFETDTNLNFQNLSVIGFRILLLKVAGFNLLMTLRLWSSRAKRSGSGVKQTLNFDLLKLAGDVESNPGPSRGHMTEYKPTVRLATRDDVPRAVRTLAAAFADYPATRHTVDPDRHIERVTELQELFLTRVGLDIGKVWVADDGAAVAVWTTPESVEAGAVFAEIGPRMAELSGSRLAAQQQMEGLLAPHRPKEPAWFLATVGVSPDHQGKGLGSAVVLPGVEAAERAGVPAFLETSAPRNLPFYERLGFTVTADVEVPEGPRTWCMTRKPGA,"+ (refer to approximately 5%, 10%, 20%, 30%, 40% and 50% GFP positive cells)"
2,22008 (protein) MALPVTALLLPLALLLHAARPQLQLQESGPGLVKPSETLSLTCTVSGDSISSGDYYWGWIRQPPGKGLEWIGHIYYSGVTYYNPSLKSRVTISVDTSRNQFSLKLSSVTAADTAVYYCTREDSSNWRSRGQGTLVTVSSLEDLKNVFPPEVAVFEPSEAEISHTQKATLVCLATGFYPDHVELSWWVNGKEVHSGVCTDPQPLKEQPALNDSRYCLSSRLRVSATFWQNPRNHFRCQVQFYGLSENDEWTQDRAKPVTQIVSAEAWGRADCGFTSESYQQGVLSATILYEILLGKATLYAVLVSALVLMAMVKRKDSRGRAKRSGSGATNFSLLKQAGDVEENPGPTSMDWIWRILFLVGAATGAHSFEVQLLESGGGLVQPGGSLRLSCAASGFIFSSYAMSWVRQAPGKGQEWVSGVSGTGVNTYYADSVKGRFTISRDNSKNTLYLQMNSLRAEDTAVYYCASGKGWDSGSWYEDYRGQGTLVTVSSTRIQNPDPAVYQLRDSKSSDKSVCLFTDFDSQTNVSQSKDSDVYITDKCVLDMRSMDFKSNSAVAWSNKSDFACANAFNNSIIPEDTFFPSPESSCDVKLVEKSFETDTNLNFQNLSVIGFRILLLKVAGFNLLMTLRLWSSRAKRSGSGVKQTLNFDLLKLAGDVESNPGPSRGHMTEYKPTVRLATRDDVPRAVRTLAAAFADYPATRHTVDPDRHIERVTELQELFLTRVGLDIGKVWVADDGAAVAVWTTPESVEAGAVFAEIGPRMAELSGSRLAAQQQMEGLLAPHRPKEPAWFLATVGVSPDHQGKGLGSAVVLPGVEAAERAGVPAFLETSAPRNLPFYERLGFTVTADVEVPEGPRTWCMTRKPGA,"+/- (refer to approximately 5%, 10%, 20%, 30%, 40% and 50% GFP positive cells)"
3,22011 (protein) MALPVTALLLPLALLLHAARPQLQLQESGPGLVKPSETLSLTCTVSGDSISSGDYYWGWIRQPPGKGLEWIGHIYYSGVTYYNPSLKSRVTISVDTSRNQFSLKLSSVTAADTAVYYCTREDSSNWRSRGQGTLVTVSSLEDLKNVFPPEVAVFEPSEAEISHTQKATLVCLATGFYPDHVELSWWVNGKEVHSGVCTDPQPLKEQPALNDSRYCLSSRLRVSATFWQNPRNHFRCQVQFYGLSENDEWTQDRAKPVTQIVSAEAWGRADCGFTSESYQQGVLSATILYEILLGKATLYAVLVSALVLMAMVKRKDSRGRAKRSGSGATNFSLLKQAGDVEENPGPTSMDWIWRILFLVGAATGAHSFEQLQLQESGPGLVKPSETLSLTCTVSGGSISSGDYYWGWIRQPPGKGLEWIGHIYYSGATYYNPSLKSRVTISVDTSRNQFSLKLSSVTAADTAVYYCTRDDSSNWRSRGQGTLVTVSSTRIQNPDPAVYQLRDSKSSDKSVCLFTDFDSQTNVSQSKDSDVYITDKCVLDMRSMDFKSNSAVAWSNKSDFACANAFNNSIIPEDTFFPSPESSCDVKLVEKSFETDTNLNFQNLSVIGFRILLLKVAGFNLLMTLRLWSSRAKRSGSGVKQTLNFDLLKLAGDVESNPGPSRGHMTEYKPTVRLATRDDVPRAVRTLAAAFADYPATRHTVDPDRHIERVTELQELFLTRVGLDIGKVWVADDGAAVAVWTTPESVEAGAVFAEIGPRMAELSGSRLAAQQQMEGLLAPHRPKEPAWFLATVGVSPDHQGKGLGSAVVLPGVEAAERAGVPAFLETSAPRNLPFYERLGFTVTADVEVPEGPRTWCMTRKPGA,"+/- (refer to approximately 5%, 10%, 20%, 30%, 40% and 50% GFP positive cells)"
4,22031 (protein) MALPVTALLLPLALLLHAARPQLQLQESGPGLVKPSETLSLTCTVSGDSISSGDYYWGWIRQPPGKGLEWIGHIYYSGVTYYNPSLKSRVTISVDTSRNQFSLKLSSVTAADTAVYYCTREDSSNWRSRGQGTLVTVSSLEGSPIKTDVITMDPKDNCSKDANDTLLLQLTNTSAYYMYLLLLLKSVVYFAIITCCLLRRTAFCCNGEKSRAKRSGSGATNFSLLKQAGDVEENPGPTSMDWIWRILFLVGAATGAHSFEVQLVESGGGVVQPGRSLRLSCAASGFSFSGYGMHWVRQAPGKGLEWVAYISYDGSNKYYADSVKGRFTISRDNSKNTLYLQMNSLRAEDTAVYYCAKDPAWGLRLGESSSYDFDIWGQGTMVTVSSTRIQNPDPAVYQLRDSKSSDKSVCLFTDFDSQTNVSQSKDSDVYITDKCVLDMRSMDFKSNSAVAWSNKSDFACANAFNNSIIPEDTFFPSPESSCDVKLVEKSFETDTNLNFQNLSVIGFRILLLKVAGFNLLMTLRLWSSRAKRSGSGVKQTLNFDLLKLAGDVESNPGPSRGHMTEYKPTVRLATRDDVPRAVRTLAAAFADYPATRHTVDPDRHIERVTELQELFLTRVGLDIGKVWVADDGAAVAVWTTPESVEAGAVFAEIGPRMAELSGSRLAAQQQMEGLLAPHRPKEPAWFLATVGVSPDHQGKGLGSAVVLPGVEAAERAGVPAFLETSAPRNLPFYERLGFTVTADVEVPEGPRTWCMTRKPGA,"+/- (refer to approximately 5%, 10%, 20%, 30%, 40% and 50% GFP positive cells)"
5,22032 (protein) MALPVTALLLPLALLLHAARPQLQLQESGPGLVKPSETLSLTCTVSGDSISSGDYYWGWIRQPPGKGLEWIGHIYYSGVTYYNPSLKSRVTISVDTSRNQFSLKLSSVTAADTAVYYCTREDSSNWRSRGQGTLVTVSSLEGSEVKTDSTDHVKPKETENTKQPSKSCHKPKAIVHTEKVNMMSLTVLGLRMLFAKTVAVNFLLTAKLFFLRAKRSGSGVKQTLNFDLLKLAGDVESNPGPTSMDWIWRILFLVGAATGAHSFEVQLVESGGGVVQPGRSLRLSCAASGFSFSGYGMHWVRQAPGKGLEWVAYISYDGSNKYYADSVKGRFTISRDNSKNTLYLQMNSLRAEDTAVYYCAKDPAWGLRLGESSSYDFDIWGQGTMVTVSSTRIQNPDPAVYQLRDSKSSDKSVCLFTDFDSQTNVSQSKDSDVYITDKCVLDMRSMDFKSNSAVAWSNKSDFACANAFNNSIIPEDTFFPSPESSCDVKLVEKSFETDTNLNFQNLSVIGFRILLLKVAGFNLLMTLRLWSSRAKRSGSGVKQTLNFDLLKLAGDVESNPGPSRGHMTEYKPTVRLATRDDVPRAVRTLAAAFADYPATRHTVDPDRHIERVTELQELFLTRVGLDIGKVWVADDGAAVAVWTTPESVEAGAVFAEIGPRMAELSGSRLAAQQQMEGLLAPHRPKEPAWFLATVGVSPDHQGKGLGSAVVLPGVEAAERAGVPAFLETSAPRNLPFYERLGFTVTADVEVPEGPRTWCMTRKPGA,"+/- (refer to approximately 5%, 10%, 20%, 30%, 40% and 50% GFP positive cells)"
6,22033 (protein) MALPVTALLLPLALLLHAARPQLQLQESGPGLVKPSETLSLTCTVSGDSISSGDYYWGWIRQPPGKGLEWIGHIYYSGVTYYNPSLKSRVTISVDTSRNQFSLKLSSVTAADTAVYYCTREDSSNWRSRGQGTLVTVSSLEDKTHTCPPCPAEVKTDSTDHVKPKETENTKQPSKSCHKPKAIVHTEKVNMMSLTVLGLRMLFAKTVAVNFLLTAKLFFLRAKRSGSGVKQTLNFDLLKLAGDVESNPGPTSMDWIWRILFLVGAATGAHSFEVQLVESGGGVVQPGRSLRLSCAASGFSFSGYGMHWVRQAPGKGLEWVAYISYDGSNKYYADSVKGRFTISRDNSKNTLYLQMNSLRAEDTAVYYCAKDPAWGLRLGESSSYDFDIWGQGTMVTVSSTRIQNPDPAVYQLRDSKSSDKSVCLFTDFDSQTNVSQSKDSDVYITDKCVLDMRSMDFKSNSAVAWSNKSDFACANAFNNSIIPEDTFFPSPESSCDVKLVEKSFETDTNLNFQNLSVIGFRILLLKVAGFNLLMTLRLWSSRAKRSGSGVKQTLNFDLLKLAGDVESNPGPSRGHMTEYKPTVRLATRDDVPRAVRTLAAAFADYPATRHTVDPDRHIERVTELQELFLTRVGLDIGKVWVADDGAAVAVWTTPESVEAGAVFAEIGPRMAELSGSRLAAQQQMEGLLAPHRPKEPAWFLATVGVSPDHQGKGLGSAVVLPGVEAAERAGVPAFLETSAPRNLPFYERLGFTVTADVEVPEGPRTWCMTRKPGA,"+/- (refer to approximately 5%, 10%, 20%, 30%, 40% and 50% GFP positive cells)"

# — patent publication US20230212319A1, “NOVEL ANTIGEN BINDING DOMAINS AND SYNTHETIC ANTIGEN RECEPTORS INCORPORATING THE SAME” (University of Southern California, priority 2020, published 2023)
